B1: FIXa-Y155F/K228N/K247N/N249S (protein)
chain 1: not shown
chain 2: not shown
B2: FIXa-R318Y/R338E/R403E/T412A (protein)
chain 1: not shown
chain 2: not shown
B3: FIXa-R318Y/R338E/T412A (protein)
chain 1: not shown
chain 2: not shown
B4: FIXa-N260S/R318Y/R338E/R403E/E410N (protein)
chain 1: not shown
chain 2: not shown
B5: FIXa-Y155F/K247N/N249S/R318Y/R403E/E410N (protein)
chain 1: not shown
chain 2: not shown
B6: FIXa-K247N/N249S/R318Y/R403E/E410N (protein)
chain 1: not shown
chain 2: not shown
B7: FIXa-Y155F/R318Y/T343R/E410N (protein)
chain 1: not shown
chain 2: not shown
B8: FIXa-R318Y/T343R/E410N (protein)
chain 1: not shown
chain 2: not shown
B9: FIXa-K228N/R318Y/R338E/T343R/R403E/E410N (protein)
chain 1: not shown
chain 2: not shown
B10: FIXa-K228N/K247N/N249S/R318Y/R338E/T343R/R403E (protein)
chain 1: not shown
chain 2: not shown
B11: FIXa-K228N/247N/N249S/R318Y/R338E/T343R/E410N (protein)
chain 1: not shown
chain 2: not shown
B12: FIXa-K228N/K247N/N249S/R318Y/T343R/R403E/E410N (protein)
chain 1: not shown
chain 2: not shown
B13: FIXa-K293A/R338A/R403A (mature FIX numbering) (protein)
chain 1: not shown
chain 2: not shown
B14: FIXa-K293E/R338E/R403E (mature FIX numbering) (protein)
chain 1: not shown
chain 2: not shown

Target: Factor X (FX), P00742
Sequence (P00742 whole entry, looked up): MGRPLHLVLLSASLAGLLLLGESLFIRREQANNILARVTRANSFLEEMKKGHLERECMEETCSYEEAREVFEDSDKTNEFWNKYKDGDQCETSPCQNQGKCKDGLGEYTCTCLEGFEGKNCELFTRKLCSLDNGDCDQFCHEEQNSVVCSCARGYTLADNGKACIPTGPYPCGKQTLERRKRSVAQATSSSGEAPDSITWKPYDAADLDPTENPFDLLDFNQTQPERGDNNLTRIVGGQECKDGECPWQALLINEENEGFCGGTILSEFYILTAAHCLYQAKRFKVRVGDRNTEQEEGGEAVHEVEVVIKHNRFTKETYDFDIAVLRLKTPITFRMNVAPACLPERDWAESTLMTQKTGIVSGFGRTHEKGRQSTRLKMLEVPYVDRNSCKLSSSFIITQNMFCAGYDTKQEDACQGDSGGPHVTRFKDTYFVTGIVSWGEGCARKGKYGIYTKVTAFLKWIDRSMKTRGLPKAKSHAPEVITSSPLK

Protein | KM [µM] | KM (nM), FX activation by FIXa in the Xase complex (FVIIIa, PC/PS vesicles, Ca2+), indirect fluorogenic assay with Spectrafluor FXa [nM] | also measured
B1 | 0.0792 |  | % of WT kcat/KM (against Catalyst Biosciences WT FIXa): 115%; kcat/KM for activation of FX by FIXa in the Xase complex (FVIIIa, PC/PS vesicles, Ca2+), fluorogenic Spectrafluor FXa read-out: 5.3e+07 M⁻¹ s⁻¹
B2 | 0.0675 |  | 
B3 | 0.0235 |  | % of WT kcat/KM (against Catalyst Biosciences WT FIXa), FX activation in the Xase complex: 661%; kcat/KM for FX activation by FIXa in the Xase complex (FVIIIa, PC/PS vesicles, Ca2+), indirect fluorogenic Spectrafluor FXa assay: 3e+08 M⁻¹ s⁻¹
B4 | 0.0724 |  | % of WT kcat/KM (against Catalyst Biosciences WT FIXa), FX activation in the Xase complex: 117%; kcat/KM for FX activation by FIXa in the Xase complex (FVIIIa, PC/PS vesicles, Ca2+), indirect fluorogenic Spectrafluor FXa assay: 5.3e+07 M⁻¹ s⁻¹
B5 | 0.125 |  | 
B6 | 0.111 |  | 
B7 |  | 40.3 | 
B8 |  | 52.3 | 
B9 |  | 40.3 | 
B10 |  | 44.4 | 
B11 |  | 38.1 | 
B12 |  | 125 | 
B13 |  |  | % of WT kcat/KM: 53%
B14 |  |  | % of WT kcat/KM: 36%

Reference: patent US11491212
